Target: T1, OTUD4 human recombinant protein (human, UniProt Q01804 1-1114)
T1 construct: deubiquitinase OTUD4, human, recombinant protein from Origene; No catalogue number is printed; also called deubiquitinase OTUD4; source: bought: Origene Technologies, Inc
T1 sequence (looked up): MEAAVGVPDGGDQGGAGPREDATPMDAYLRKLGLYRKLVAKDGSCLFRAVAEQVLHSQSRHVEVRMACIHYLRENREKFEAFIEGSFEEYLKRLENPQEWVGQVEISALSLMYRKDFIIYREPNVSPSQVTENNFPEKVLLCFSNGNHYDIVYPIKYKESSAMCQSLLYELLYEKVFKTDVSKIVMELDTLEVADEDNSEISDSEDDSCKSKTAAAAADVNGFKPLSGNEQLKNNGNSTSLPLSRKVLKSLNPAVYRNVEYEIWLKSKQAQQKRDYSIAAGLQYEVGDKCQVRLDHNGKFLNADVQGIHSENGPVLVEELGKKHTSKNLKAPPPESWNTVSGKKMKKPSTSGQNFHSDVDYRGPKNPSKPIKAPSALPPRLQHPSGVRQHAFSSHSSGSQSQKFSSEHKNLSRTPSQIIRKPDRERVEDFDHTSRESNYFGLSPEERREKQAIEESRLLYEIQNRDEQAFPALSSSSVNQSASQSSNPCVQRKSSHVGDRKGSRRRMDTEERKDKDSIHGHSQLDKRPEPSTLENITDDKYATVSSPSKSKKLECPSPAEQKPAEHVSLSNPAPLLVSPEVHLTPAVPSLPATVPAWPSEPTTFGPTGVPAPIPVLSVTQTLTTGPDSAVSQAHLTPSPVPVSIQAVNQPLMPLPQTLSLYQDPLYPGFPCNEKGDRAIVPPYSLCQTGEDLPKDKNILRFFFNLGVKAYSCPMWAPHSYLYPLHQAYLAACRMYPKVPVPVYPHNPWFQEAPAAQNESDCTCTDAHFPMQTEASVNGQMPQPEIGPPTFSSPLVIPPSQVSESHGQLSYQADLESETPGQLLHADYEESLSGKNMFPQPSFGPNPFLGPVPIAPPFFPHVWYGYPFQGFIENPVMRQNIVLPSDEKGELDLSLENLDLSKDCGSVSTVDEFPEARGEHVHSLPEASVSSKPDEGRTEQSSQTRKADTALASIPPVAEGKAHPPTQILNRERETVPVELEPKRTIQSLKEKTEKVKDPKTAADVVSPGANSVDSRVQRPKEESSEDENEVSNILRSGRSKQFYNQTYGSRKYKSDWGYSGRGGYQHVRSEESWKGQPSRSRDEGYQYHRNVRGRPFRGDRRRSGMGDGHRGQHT
Assay: SPR; Biacore T200; OTUD4 on a CM5 chip by amine coupling; various concentrations of PFKFB3 injected over the OTUD4 surface
Details: both partners purified

Kd: 250 nM
B1: human recombinant PFKFB3 protein (enzyme, UniProt Q16875 1-520, looked up)
chain: MPLELTQSRVQKIWVPVDHRPSLPRSCGPKLTNSPTVIVMVGLPARGKTYISKKLTRYLNWIGVPTKVFNVGEYRREAVKQYSSYNFFRPDNEEAMKVRKQCALAALRDVKSYLAKEGGQIAVFDATNTTRERRHMILHFAKENDFKAFFIESVCDDPTVVASNIMEVKISSPDYKDCNSAEAMDDFMKRISCYEASYQPLDPDKCDRDLSLIKVIDVGRRFLVNRVQDHIQSRIVYYLMNIHVQPRTIYLCRHGENEHNLQGRIGGDSGLSSRGKKFASALSKFVEEQNLKDLRVWTSQLKSTIQTAEALRLPYEQWKALNEIDAGVCEELTYEEIRDTYPEEYALREQDKYYYRYPTGESYQDLVQRLEPVIMELERQENVLVICHQAVLRCLLAYFLDKSAEEMPYLKCPLHTVLKLTPVAYGCRVESIYLNVESVCTHRERSEDAKKGPNPLMRRNSVTPLASPEPTKKPRINSFEEHVASTSAALPSCLPPEVPTQLPGQNMKGSRSSADSSRKH
notes: phosphofructokinase-2/fructose-2,6-bisphosphatase 3 (PFKFB3), human, recombinant protein from Origene; No catalogue number is printed; also called phosphofructokinase-2/fructose-2,6-bisphosphatase 3; source: bought: Origene

Reference: article PMC10234888, “Upregulation of glycolytic enzyme PFKFB3 by deubiquitinase OTUD4 promotes cardiac fibrosis post myocardial infarction” (Journal of Molecular Medicine (Berlin, Germany), 2023)
